Assay [1] has as its target T1, Human OX40 protein having a His-Tag (human, UniProt P43489 29-216, limits assumed).
T1 construct: Bought recombinant protein; also called hOX40-His; hOX40; not shown: His tag
T1 sequence (looked up): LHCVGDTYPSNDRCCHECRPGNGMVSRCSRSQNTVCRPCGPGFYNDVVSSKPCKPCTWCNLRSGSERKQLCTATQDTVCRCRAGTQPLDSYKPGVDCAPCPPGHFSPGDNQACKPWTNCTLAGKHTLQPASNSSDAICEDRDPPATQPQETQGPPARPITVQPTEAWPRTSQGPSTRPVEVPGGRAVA
As to the kind of experiment: SPR Biacore 8K, Protein A chip; antibody captured, antigen analyte. (In general: In SPR one partner is held on a chip, and binding of the other changes the refractive index at the surface.)

For assay [2], the target named is T2, human OX40 expressed on transfected cells (human, UniProt P43489 29-277).
T2 construct: whole, on cells; also called hOX40 on HEK293T-hCTLA4-hOX40 cells; on Jurkat-luc-hOX40
T2 sequence (looked up): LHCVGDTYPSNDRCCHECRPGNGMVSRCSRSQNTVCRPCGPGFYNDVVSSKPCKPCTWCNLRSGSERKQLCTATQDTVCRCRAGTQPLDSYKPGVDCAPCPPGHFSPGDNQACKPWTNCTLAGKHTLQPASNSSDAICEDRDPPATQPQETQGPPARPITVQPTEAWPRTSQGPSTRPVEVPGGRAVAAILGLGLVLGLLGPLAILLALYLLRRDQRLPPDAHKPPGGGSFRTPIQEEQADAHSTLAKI
As to the kind of experiment: flow cytometry (MFI, anti-hIgG-Fc-Alexa Fluor 647) on HEK293T-hCTLA4-hOX40 cells co-expressing human CTLA4 and human OX40. In general terms: A flow cytometer gives signals particle by particle.

Assay [3] concerns the target T1, Human OX40 protein having a His-Tag. Put plainly: SPR Biacore 8K, Protein A chip; antibody captured, antigen analyte. This is another data set of the same source.
Assay [4] addresses T3, Cynomolgus/Rhesus macaque OX40/TNFRSF4/CD134 Protein, His Tag (Cynomolgus/Rhesus macaque).
T3 construct: Bought recombinant protein; also called fasOX40-His; monkey OX40
The assay is described as above.

Assay [5] deals with T4, human CTLA4 expressed on transfected cells (human, UniProt P16410 36-223).
T4 construct: whole, on cells; also called hCTLA4 on HEK293T-hCTLA4-hOX40 cells; on Jurkat-luc-hCTLA4
T4 sequence (looked up): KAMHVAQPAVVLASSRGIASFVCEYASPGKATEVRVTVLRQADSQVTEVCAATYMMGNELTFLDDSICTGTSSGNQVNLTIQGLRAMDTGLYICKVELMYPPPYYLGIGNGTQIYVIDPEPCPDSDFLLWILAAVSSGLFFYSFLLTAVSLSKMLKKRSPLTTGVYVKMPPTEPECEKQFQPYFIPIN
As to the kind of experiment: flow cytometry (MFI, anti-hIgG-Fc-Alexa Fluor 647) on HEK293T-hCTLA4-hOX40 cells co-expressing human CTLA4 and human OX40; the bispecific can bind both antigens on the same cell, signal not separable by target.

Assay [6] concerns the target T2, human OX40 expressed on transfected …. Described as above.
Assay [7] concerns the target T4, human CTLA4 expressed on transfected …. Described as above. The source holds these as a separate data set.
Assay [8] concerns the target T2, human OX40 expressed on transfected …. Described as above. This is another data set of the same source.
The target of assay [9] is T5, Human CTLA4 protein having a His-Tag (human, UniProt P16410 37-162, limits assumed).
T5 construct: Bought recombinant protein; also called hCTLA4-His; hCTLA4; not shown: His tag
T5 sequence (looked up): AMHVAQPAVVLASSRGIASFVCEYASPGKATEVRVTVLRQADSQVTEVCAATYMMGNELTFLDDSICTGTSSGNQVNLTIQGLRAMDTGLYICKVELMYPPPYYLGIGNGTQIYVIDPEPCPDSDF
Put plainly: SPR Biacore 8K, Protein A chip; antibody captured, antigen analyte.

For assay [10], the target named is T4, human CTLA4 expressed on transfected …. Put plainly: flow cytometry (MFI, anti-hIgG-Fc-Alexa Fluor 647) on HEK293T-hCTLA4-hOX40 cells co-expressing human CTLA4 and human OX40.
For assay [11] the target is unchanged. Described as above. This is another data set of the same source.
Assay [12] shares this target. The assay is described as above. This is another data set of the same source.
Assay [13] has the same target. Put plainly: flow cytometry (MFI, anti-hIgG-Fc-Alexa Fluor 647) on HEK293T-hCTLA4-hOX40 cells co-expressing human CTLA4 and human OX40; the bispecific can bind both antigens on the same cell, signal not separable by target. The source holds these as a separate data set.
The target of assay [14] is T2, human OX40 expressed on transfected …. The assay is described as above. This is another data set of the same source.
Assay [15] has the same target. Put plainly: flow cytometry (MFI, anti-hIgG-Fc-Alexa Fluor 647) on HEK293T-hCTLA4-hOX40 cells co-expressing human CTLA4 and human OX40. This is another data set of the same source.

Like-named read-outs stand apart in the source and are kept apart here.

B1: OX-4C8-IgG1 (antibody, V domains shown)
VH: QVQLVESGPTLVKPTQTLTLTCTFSGFSLSTTRVGVGWIRQPPGKALEWLALIYWDDDKRYSPSLKNRLTLTKDTSKNQVVLTMTNMDPVDTATYYCAHFGSGTYYNVDY
VL: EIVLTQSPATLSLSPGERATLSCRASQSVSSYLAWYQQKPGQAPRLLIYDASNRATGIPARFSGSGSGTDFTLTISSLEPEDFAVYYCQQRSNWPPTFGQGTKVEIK
notes: Human anti-OX40 antibody; IgG1 constant regions
On to B1, for which, in assay [1], binding was put at a Kd of 65.4 nM; the koff (in general, the rate constant with which the complex falls apart) is 0.00738 s⁻¹; the kon (commonly a measure of how fast the partners come together) amounted to 113000 M⁻¹ s⁻¹. Further, in assay [2], the EC50 (read off the curve) (as a rule, the concentration needed to bring the measured effect to its halfway point) is about 0.3 µg/mL.

B2: OX-H7-CT-3D2-IgG1-SI (bispecific antibody, V domains shown)
VH 1: QITLKESGPTLVKPAQTLTLTCTFSGFSLSTSGVGVGWIRQPPGKALEWLALIYWDDDKLYSPSLKSRLTITKDTSKNQVVLAMTNMDPVDTATYYCAHSQLGRDDYWGQGTLVTVSS
VH 2: QVQLVESGPGLVKPSETLSLTCTVSGDSIRSSHYYWGWIRQPPGKGLEWIGSIYFNGITYYSPSLKSRVTISVDTSKNQFSLKLTSVTAADTAVFYCARHNNYYDSSGYWYYFDYWGQGTLVTVSS
VL: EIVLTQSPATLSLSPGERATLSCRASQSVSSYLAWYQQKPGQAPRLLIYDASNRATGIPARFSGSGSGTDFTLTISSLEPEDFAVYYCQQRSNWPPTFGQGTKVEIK
notes: SI mutations (S239D, I332E, EU)
With B2, in [3], binding was put at a Kd of 182 nM, the off-rate constant (koff) came to 0.00169 s⁻¹ and the kon amounted to 9260 M⁻¹ s⁻¹. Besides, in [4], the Kd (in general, the constant that tells how readily two partners part at equilibrium) amounted to 163 nM; the dissociation rate constant (koff) is 0.001 s⁻¹; the kon was 6170 M⁻¹ s⁻¹. In assay [5], the “EC50 (read off the curve)” value was about 1 µg/mL. The “EC50 (read off the curve)” value in assay [6] was about 1 µg/mL.

B3: OX-4C8-CT-3D2-IgG1-SI (bispecific antibody, V domains shown)
VH 1: QVQLVESGPTLVKPTQTLTLTCTFSGFSLSTTRVGVGWIRQPPGKALEWLALIYWDDDKRYSPSLKNRLTLTKDTSKNQVVLTMTNMDPVDTATYYCAHFGSGTYYNVDYWGQGTLVTVSSAS
VH 2: QVQLVESGPGLVKPSETLSLTCTVSGDSIRSSHYYWGWIRQPPGKGLEWIGSIYFNGITYYSPSLKSRVTISVDTSKNQFSLKLTSVTAADTAVFYCARHNNYYDSSGYWYYFDYWGQGTLVTVSS
VL: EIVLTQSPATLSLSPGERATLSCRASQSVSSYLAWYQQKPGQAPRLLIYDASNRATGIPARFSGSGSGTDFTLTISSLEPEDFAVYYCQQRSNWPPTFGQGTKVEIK
notes: 1+1 knobs-into-holes human IgG1 with common light chain; SI mutations (S239D, I332E, EU)
As to B3, the figures for the Kd in assay [3] and in assay [4] were 17.6 nM and 6.4 nM, respectively. The koff in assay [3] stood at 0.00258 s⁻¹; in assay [4], 0.0037 s⁻¹. The values for the kon in [3] and in assay [4] were 147000 M⁻¹ s⁻¹ and 578000 M⁻¹ s⁻¹, respectively. Also, the “EC50 (read off the curve)” value in [7] and in [8] was about 2 µg/mL each time.

B4: CT-3D2-IgG1 (antibody, V domains shown)
VH: QVQLVESGPGLVKPSETLSLTCTVSGDSIRSSHYYWGWIRQPPGKGLEWIGSIYFNGITYYSPSLKSRVTISVDTSKNQFSLKLTSVTAADTAVFYCARHNNYYDSSGYWYYFDYWGQGTLVTVSS
VL: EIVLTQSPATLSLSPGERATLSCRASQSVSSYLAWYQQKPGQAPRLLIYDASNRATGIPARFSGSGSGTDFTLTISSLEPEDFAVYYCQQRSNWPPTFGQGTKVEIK
notes: Human anti-CTLA4 antibody from RenLite mice
For B4, the affinity in [9], expressed as Kd, was 17.1 nM. For the same molecule, the koff in assay [9] turned out to be 0.00079 s⁻¹. Moreover, in assay [9], the kon was 46200 M⁻¹ s⁻¹. Besides, the “EC50 (read off the curve)” value in assay [10], in assay [11] and in assay [12] was about 2 µg/mL throughout.

B5: OX-H8-CT-3D2-IgG1-SI (bispecific antibody, V domains shown)
VH 1: QITLKESGPTLVKPTQTLTLTCTFSGFSLSSRGVGVGWIRQPPGKALEWLALIYWDDDKRYSPSLKSRLTITKDTSKNQVVLTMANMDPVDTATYYCAHSHRGYENFWGQGTLVTVSS
VH 2: QVQLVESGPGLVKPSETLSLTCTVSGDSIRSSHYYWGWIRQPPGKGLEWIGSIYFNGITYYSPSLKSRVTISVDTSKNQFSLKLTSVTAADTAVFYCARHNNYYDSSGYWYYFDYWGQGTLVTVSS
VL: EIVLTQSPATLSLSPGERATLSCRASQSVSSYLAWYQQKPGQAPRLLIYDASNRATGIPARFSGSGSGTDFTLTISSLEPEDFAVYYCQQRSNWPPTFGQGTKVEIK
notes: as for B2
In [3], B5 had a Kd of 16 nM, a koff of 0.00784 s⁻¹ and a kon of 490000 M⁻¹ s⁻¹. In [4], the Kd is 18.9 nM, the koff came out at 0.00966 s⁻¹ and the on-rate (kon) worked out at 510000 M⁻¹ s⁻¹. In addition, the “EC50 (read off the curve)” value in [13] is about 1 µg/mL. Also, in [14], the “EC50 (read off the curve)” value was about 1 µg/mL.

B6: OX-H8-IgG1 (antibody, V domains shown)
VH: QITLKESGPTLVKPTQTLTLTCTFSGFSLSSRGVGVGWIRQPPGKALEWLALIYWDDDKRYSPSLKSRLTITKDTSKNQVVLTMANMDPVDTATYYCAHSHRGYENFWGQGTLVTVSS
VL: EIVLTQSPATLSLSPGERATLSCRASQSINSYLAWYQQNPGQAPRLLIYLASNRATGIPARFSGSGSGTDFTLTITSLEPEDFAVYYCQQRSDWPPTFGQGTKVEIK
notes: Monoclonal anti-OX40 antibody, IgG1 constant regions
In assay [1], B6 registered a Kd of 8.68 nM, a koff of 0.00441 s⁻¹ and a kon of 508000 M⁻¹ s⁻¹. Besides, in assay [15], the “EC50 (read off the curve)” value is about 7 µg/mL.
